{
  "source": "patent US20240199758A1",
  "about": "“METHOD FOR ALLOWING IMMUNE CELLS INFILTRATION IN TUMORS” (Alethia Biotherapeutics Inc., priority 2021, published 2024)",
  "key": {"[1]": {"assay": "Phase I study AB-16B5-101: plasma pharmacokinetics (non-compartmental analysis);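 on AUC 0-t: ng·h/mL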", "assay_type": "in vivo, human", "details": "for AUC 0-t / Cmax / Thalf: mean; for AUC 0-t / Cmax / Thalf / Tmax: plasma; for Tmax: median", "text": "Plasma PK parameters for AB-16B5 were derived from the concentration-time profiles following the first dose of Cycle 1 and the first dose of Cycle 2 using a non-compartmental analysis (NCA) with Phoenix WinNonlin."}, "[2]": {"details": "rhesus monkey, in vivo"}, "human tumor biopsies": {"test_system": "human tumor biopsies", "assay": "Human tumor biopsies of patients treated with AB-16B5 as single agent (hematoxylin and eosin)", "assay_type": "in vivo", "details": "on-treatment biopsy after the second cycle", "experimental": "In parallel human tumor biopsies of patients treated with AB-16B5 as single agent were analyzed (FIGS. 2B-2E). Needle biopsies obtained from a patient with metastatic thyroid cancer and form a patient with inoperable metastatic gastric cancer were sectioned and stained with hematoxylin and eosin. An on-treatment biopsy from a patient with thyroid cancer metastasic to the lungs was obtained after the second cycle treatment with AB-16B5. […] Hemosiderin-laden macrophages were observed inside necrotic areas some reflecting red blood cell extravasation associated with necrosis (not shown)."}, "[3]": {"test_system": "frozen tissues from human", "assay": "Tissue cross-reactivity study, human tissues", "assay_type": "binding", "details": "human tissue panel, 2 and 10 μg/mL", "experimental": "In addition, a tissue cross-reactivity study was conducted to determine the potential cross-reactivity of AB-16B5 with frozen tissues from human, Rhesus monkey, and Sprague-Dawley rat tissues."}, "tumor biopsies": {"test_system": "tumor biopsies", "assay": "Phase I study: necrosis in paired tumor biopsies", "assay_type": "in vivo, human", "experimental": "Tumor biopsies were collected during the standard dose escalation to investigate the presence of AB-16B5 within the tumor. A total of 4 pre-treatment and 5 post-treatment tumor biopsies were suitable for analysis. These post-treatment tumor biopsies were collected following dosing on Cycle 2 Day 15 (between Cycle 2 Day 15 and Cycle 2 Day 18). The biopsy sites were liver (n=2), lymph node (n=2), bladder, skin and vulva.\nImmunohistochemistry studies were conducted on paired tumor biopsies to determine if the treatment with AB-16B5 was associated with a reacquisition of an epithelial phenotype."}, "[4]": {"details": "thyroid cancer metastatic to the lungs, FIG. 2B"}},
  "data": [
    {"substance": "AB-16B5: humanized IgG2 monoclonal antibody targeting sCLU for the inhibition of cancer-associated EMT; light chain SEQ ID NO:11, heavy chain SEQ ID NO:12", "values": [
      {"measurement": "AUC 0-t", "setting": "[1]; Cycle 1, 1.5 mg/kg (N = 1)", "value": "230,321 ng * h/mL"},
      {"measurement": "Cmax", "setting": "[1]; Cycle 1, 1.5 mg/kg (N = 1)", "value": "17,958 ng/mL"},
      {"measurement": "Thalf", "setting": "[1]; Cycle 1, 1.5 mg/kg (N = 1)", "value": 9.35, "unit": "h"},
      {"measurement": "Tmax", "setting": "[1]; Cycle 1, 1.5 mg/kg (N = 1)", "value": 1.17, "unit": "h"},
      {"measurement": "AUC 0-t", "setting": "[1]; Cycle 1, 3.0 mg/kg (N = 1)", "value": "645,602 ng * h/mL"},
      {"measurement": "Cmax", "setting": "[1]; Cycle 1, 3.0 mg/kg (N = 1)", "value": "50,736 ng/mL"},
      {"measurement": "Thalf", "setting": "[1]; Cycle 1, 3.0 mg/kg (N = 1)", "value": 7.39, "unit": "h"},
      {"measurement": "Tmax", "setting": "[1]; Cycle 1, 3.0 mg/kg (N = 1)", "value": 1.08, "unit": "h"},
      {"measurement": "AUC 0-t", "setting": "[1]; Cycle 1, 6.0 mg/kg (N = 3)", "value": "1,357,773 ng * h/mL"},
      {"measurement": "Cmax", "setting": "[1]; Cycle 1, 6.0 mg/kg (N = 3)", "value": "117,663 ng/mL"},
      {"measurement": "Thalf", "setting": "[1]; Cycle 1, 6.0 mg/kg (N = 3)", "value": 6.99, "unit": "h"},
      {"measurement": "Tmax", "setting": "[1]; Cycle 1, 6.0 mg/kg (N = 3)", "value": 1.00, "unit": "h"},
      {"measurement": "AUC 0-t", "setting": "[1]; Cycle 1, 9.0 mg/kg (N = 3)", "value": "2,083,091 ng * h/mL"},
      {"measurement": "Cmax", "setting": "[1]; Cycle 1, 9.0 mg/kg (N = 3)", "value": "162,103 ng/mL"},
      {"measurement": "Thalf", "setting": "[1]; Cycle 1, 9.0 mg/kg (N = 3)", "value": 10.78, "unit": "h"},
      {"measurement": "Tmax", "setting": "[1]; Cycle 1, 9.0 mg/kg (N = 3)", "value": 2.00, "unit": "h"},
      {"measurement": "AUC 0-t", "setting": "[1]; Cycle 1, 12.0 mg/kg (N = 7)", "value": "4,045,786 ng * h/mL"},
      {"measurement": "Cmax", "setting": "[1]; Cycle 1, 12.0 mg/kg (N = 7)", "value": "256,977 ng/mL"},
      {"measurement": "Thalf", "setting": "[1]; Cycle 1, 12.0 mg/kg (N = 7)", "value": 11.99, "unit": "h"},
      {"measurement": "Tmax", "setting": "[1]; Cycle 1, 12.0 mg/kg (N = 7)", "value": 1.12, "unit": "h"},
      {"measurement": "increase of mean Cmax and AUC0-t with the dose", "setting": "[1]; Cycle 1, dose range of 3.0 to 12.0 mg/kg", "value": "dose proportional"},
      {"measurement": "AUC 0-t", "setting": "[1]; Cycle 2, 1.5 mg/kg (N = 1)", "value": "188,584 ng * h/mL"},
      {"measurement": "Cmax", "setting": "[1]; Cycle 2, 1.5 mg/kg (N = 1)", "value": "15,662 ng/mL"},
      {"measurement": "Thalf", "setting": "[1]; Cycle 2, 1.5 mg/kg (N = 1)", "value": 7.97, "unit": "h"},
      {"measurement": "Tmax", "setting": "[1]; Cycle 2, 1.5 mg/kg (N = 1)", "value": 1.00, "unit": "h"},
      {"measurement": "AUC 0-t", "setting": "[1]; Cycle 2, 3.0 mg/kg (N = 1)", "value": "688,934 ng * h/mL"},
      {"measurement": "Cmax", "setting": "[1]; Cycle 2, 3.0 mg/kg (N = 1)", "value": "61,466 ng/mL"},
      {"measurement": "Thalf", "setting": "[1]; Cycle 2, 3.0 mg/kg (N = 1)", "value": 6.82, "unit": "h"},
      {"measurement": "Tmax", "setting": "[1]; Cycle 2, 3.0 mg/kg (N = 1)", "value": 1.05, "unit": "h"},
      {"measurement": "AUC 0-t", "setting": "[1]; Cycle 2, 6.0 mg/kg (N = 3)", "value": "1,351,156 ng * h/mL"},
      {"measurement": "Cmax", "setting": "[1]; Cycle 2, 6.0 mg/kg (N = 3)", "value": "120,466 ng/mL"},
      {"measurement": "Thalf", "setting": "[1]; Cycle 2, 6.0 mg/kg (N = 3)", "value": 7.70, "unit": "h"},
      {"measurement": "Tmax", "setting": "[1]; Cycle 2, 6.0 mg/kg (N = 3)", "value": 1.03, "unit": "h"},
      {"measurement": "AUC 0-t", "setting": "[1]; Cycle 2, 9.0 mg/kg (N = 3)", "value": "2,459,988 ng * h/mL"},
      {"measurement": "Cmax", "setting": "[1]; Cycle 2, 9.0 mg/kg (N = 3)", "value": "163,840 ng/mL"},
      {"measurement": "Thalf", "setting": "[1]; Cycle 2, 9.0 mg/kg (N = 3)", "value": 13.75, "unit": "h"},
      {"measurement": "Tmax", "setting": "[1]; Cycle 2, 9.0 mg/kg (N = 3)", "value": 1.08, "unit": "h"},
      {"measurement": "AUC 0-t", "setting": "[1]; Cycle 2, 12.0 mg/kg (N = 7)", "value": "4,147,243 ng * h/mL"},
      {"measurement": "Cmax", "setting": "[1]; Cycle 2, 12.0 mg/kg (N = 7)", "value": "230,268 ng/mL"},
      {"measurement": "Thalf", "setting": "[1]; Cycle 2, 12.0 mg/kg (N = 7)", "value": 21.04, "unit": "h"},
      {"measurement": "Tmax", "setting": "[1]; Cycle 2, 12.0 mg/kg (N = 7)", "value": 1.04, "unit": "h"},
      {"measurement": "increase of mean Cmax and AUC0-t with the dose", "setting": "[1]; Cycle 2, dose range of 3.0 to 12.0 mg/kg", "value": "dose proportional"},
      {"measurement": "systemic exposure versus dose", "setting": "[1]; across all dose levels", "value": "increased in a dose proportional manner"},
      {"measurement": "accumulation of AB-16B5", "setting": "[1]; between Cycle 1 and Cycle 2", "value": "No significant accumulation"},
      {"measurement": "emesis during infusion", "setting": "[2]", "value": "Few episodes of emesis"},
      {"measurement": "signs of overt toxicity", "setting": "[2]", "value": "did not result in any signs of overt toxicity"},
      {"measurement": "treatment-related effects on body weight, ophthalmology, electrocardiography and organ weight", "setting": "[2]", "value": "no treatment-related effects"},
      {"measurement": "animals with hepatocellular vacuolation in the liver", "setting": "[2]; 100 mg/kg", "value": 2, "unit": "animals"},
      {"measurement": "immune infiltrate in tumor fragments", "setting": "human tumor biopsies; metastatic gastric cancer, FIG. 2E", "value": "infiltrated by a mix neutrophilic and mononucleated immune cells infiltrate"},
      {"measurement": "immune infiltrate in tumor fragment", "setting": "human tumor biopsies; [4]", "value": "A lymphoplasmacytic infiltrate was observed along the edge of the fragment"},
      {"measurement": "necrosis of tumor fragments", "setting": "human tumor biopsies; [4]", "value": "essentially all tumor fragments were necrotic"},
      {"measurement": "AB-16B5 staining of tissue elements", "setting": "[3]", "value": "observed in a number of tissue elements"},
      {"measurement": "membrane staining", "setting": "[3]", "value": "no membrane staining was observed"},
      {"measurement": "Necrosis Post-Treatment", "setting": "tumor biopsies; Subject 006, Breast, biopsy site Skin (pre-treatment 0%)", "value": 10, "unit": "%"},
      {"measurement": "Necrosis Post-Treatment", "setting": "tumor biopsies; Subject 007, Gastric, biopsy site Gastric (pre-treatment 0%)", "value": 0, "unit": "%"},
      {"measurement": "Necrosis Post-Treatment", "setting": "tumor biopsies; Subject 012, Breast, biopsy site Skin (pre-treatment 0%)", "value": 5, "unit": "%"},
      {"measurement": "Necrosis Post-Treatment", "setting": "tumor biopsies; Subject 013, Prostate, biopsy site Bladder (pre-treatment 0%)", "value": 10, "unit": "%"}
    ]}
  ]
}
